Measured values published in patent US20150322137A1 (EVEC, published 2015).

B1: EV046116 (antibody, human IgG1, kappa, V domains shown)
VH: QVQLQESGPGLVKPSETLSLTCTVSGGSISRDYWSFIRQPAGKGLEWIGRIYHNGDTNYNPSLKSRVTMSQDTSKNQFFLRLRHVTAADTAVYYCAREGSAGTFGQADWGQGTLVIVYS
VL: EIVMTQSPATLSVSPGERATLSCRASQSISNNLAWYQQKPGQAPRLLIYGASTRATGIPARFSGGGSGTEFTLTISSLQSEDFAVYYCQQYENWLLYTFGQGTKLEIKR
B2: EV046150 (antibody, human IgG1, kappa, V domains shown)
VH: RVQLVQSGAEVKKPGSSVRVSCKASGGTFSNYSISWVRQVPGQGLEWMGRIIPILPLSSYPQQFQGRVAITADKSSTTAYMELSSLRIEDTAIYYCARDALRPEGGYYYYYFDVWGTGTTVTVSS
VL: EIELTQSPGTLSLSPGERATLSCRANQIIGDTSLAWYQQKPGQAPRLLIFGASSRATGIPDRFSGSGFGSDFTLTITSLEPEDFAVYYCQQYGSSPTFGQGTKVEIKR
B3: EV046113 (antibody, human IgG1, kappa, V domains shown)
VH: QVQLVESGGGLVRPGGSLRLSCAASGFTFSDYFMTWIRQAPGKGLEWVSYINSIGSVIFYADSVEGRFTVSRDNTMKSLFLQMNSLTAEDTAVYYCARSCRISYGASGGFSCGMDVWGQGTPVTVSS
VL: DIQMTQSPSSLSASVGDRVTITCQASQSIRENINWYQQKTGKAPKLLIYDASILETGVPSRFSGSGSGTHFTFTISSLQPEDMATYYCQQYHHLITFGQGTRLDIKR
B4: EV046120 (antibody, human IgG1, lambda, V domains shown)
VH: EVQLVESGGGLVKPGGSLRLSCAASGFTFSSYSMNWVRQAPGKGLEWVSSISSSSSYIYYADSLKGRFTVSRDNAKKSLYLQMNSLRAEDTAVYYCARVDYGTNSEVGRFDPWGQGTLVTVSS
VL: QSVLTQPPSVSGTPGQRVTISCTGSSSNIGAGYAVHWYQQLPGTAPKLLIYDSINRPSGVPDRFSGSKSGTSASLAITGLQTEDEADYYCHSYDRSLSGSVFGGGTKLTVLG

Biological target: T1, F protein of human metapneumovirus strain JPS02-76 (type B1), on infectious virus (human metapneumovirus, strain JPS02-76 …, UniProt Q6WB98 19-539)
Assay: cell-based or functional assay

| Binder | IC50, neutralizing activity (hMPV infection of LLC-MK2 cells) |
| --- | --- |
| B1 | 0.25 µg/mL |
| B2 | 0.3 µg/mL |
| B3 | 0.68 µg/mL |

Biological target: T2, F protein of human metapneumovirus strain JPS05-21 (type B2), on infectious virus (human metapneumovirus, strain JPS05-21 …)
Assay: cell-based or functional assay

| Binder | IC50, neutralizing activity (hMPV infection of LLC-MK2 cells) |
| --- | --- |
| B1 | 0.25 µg/mL |
| B2 | 0.18 µg/mL |
| B4 | 0.24 µg/mL |
| B3 | 0.39 µg/mL |

Biological target: T3, F protein of human metapneumovirus strain JPS03-180 (type A1), on infectious virus (human metapneumovirus, strain JPS03-180 …)
Assay: cell-based or functional assay

| Binder | IC50, neutralizing activity (hMPV infection of LLC-MK2 cells) |
| --- | --- |
| B1 | 0.31 µg/mL |
| B2 | 0.049 µg/mL |
| B4 | 0.32 µg/mL |
| B3 | 0.38 µg/mL |

Biological target: T1, F protein of human metapneumovirus …
Assay: cell-based or functional assay
Remark: another data set of the same source

| Binder | IC50, neutralizing activity (hMPV infection of LLC-MK2 cells; GraphPad Prism 6) |
| --- | --- |
| B4 | 0.241 µg/mL |

Biological target: T2, F protein of human metapneumovirus …
Assay: cell-based or functional assay
Remark: another data set of the same source

| Binder | IC50, neutralizing activity (hMPV infection of LLC-MK2 cells; GraphPad Prism 6) |
| --- | --- |
| B1 | 0.279 µg/mL |
| B2 | 0.202 µg/mL |
| B4 | 0.249 µg/mL |
| B3 | 0.491 µg/mL |

Biological target: T3, F protein of human metapneumovirus …
Assay: cell-based or functional assay
Remark: another data set of the same source

| Binder | IC50, neutralizing activity (hMPV infection of LLC-MK2 cells; GraphPad Prism 6) |
| --- | --- |
| B1 | 0.351 µg/mL |
| B2 | 0.0618 µg/mL |
| B4 | 0.3 µg/mL |
| B3 | 0.418 µg/mL |

Biological target: T4, F protein of human metapneumovirus strain JPS03-178 (type A2), on infectious virus (human metapneumovirus, strain JPS03-178 …)
Assay: cell-based or functional assay

| Binder | IC50, neutralizing activity (hMPV infection of LLC-MK2 cells; GraphPad Prism 6) |
| --- | --- |
| B1 | 0.19 µg/mL |
| B2 | 0.0298 µg/mL |
| B4 | 0.0971 µg/mL |
| B3 | 0.645 µg/mL |

Biological target: T1, F protein of human metapneumovirus …
Assay: cell-based or functional assay
Remark: another data set of the same source

| Binder | IC60, neutralizing activity (hMPV infection of LLC-MK2 cells; GraphPad Prism 6) |
| --- | --- |
| B1 | 0.497 µg/mL |
| B2 | 0.36 µg/mL |
| B4 | 0.344 µg/mL |
| B3 | 0.819 µg/mL |

Biological target: T2, F protein of human metapneumovirus …
Assay: cell-based or functional assay
Remark: another data set of the same source

| Binder | IC60, neutralizing activity (hMPV infection of LLC-MK2 cells; GraphPad Prism 6) |
| --- | --- |
| B1 | 0.341 µg/mL |
| B2 | 0.229 µg/mL |
| B4 | 0.301 µg/mL |
| B3 | 0.652 µg/mL |

Biological target: T3, F protein of human metapneumovirus …
Assay: cell-based or functional assay
Remark: another data set of the same source

| Binder | IC60, neutralizing activity (hMPV infection of LLC-MK2 cells; GraphPad Prism 6) |
| --- | --- |
| B1 | 0.428 µg/mL |
| B2 | 0.0823 µg/mL |
| B4 | 0.421 µg/mL |
| B3 | 0.522 µg/mL |

Biological target: T4, F protein of human metapneumovirus …
Assay: cell-based or functional assay
Remark: another data set of the same source

| Binder | IC60, neutralizing activity (hMPV infection of LLC-MK2 cells; GraphPad Prism 6) |
| --- | --- |
| B1 | 0.247 µg/mL |
| B2 | 0.0373 µg/mL |
| B4 | 0.138 µg/mL |
| B3 | 0.76 µg/mL |

Biological target: T1, F protein of human metapneumovirus …
Assay: cell-based or functional assay
Remark: another data set of the same source

| Binder | IC90, neutralizing activity (hMPV infection of LLC-MK2 cells; GraphPad Prism 6) |
| --- | --- |
| B1 | 3 µg/mL |
| B2 | 0.663 µg/mL |
| B4 | 1.65 µg/mL |
| B3 | 1.48 µg/mL |

Biological target: T2, F protein of human metapneumovirus …
Assay: cell-based or functional assay
Remark: another data set of the same source

| Binder | IC90, neutralizing activity (hMPV infection of LLC-MK2 cells; GraphPad Prism 6) |
| --- | --- |
| B1 | 0.828 µg/mL |
| B2 | 0.404 µg/mL |
| B4 | 0.694 µg/mL |
| B3 | 2.29 µg/mL |

Biological target: T3, F protein of human metapneumovirus …
Assay: cell-based or functional assay
Remark: another data set of the same source

| Binder | IC90, neutralizing activity (hMPV infection of LLC-MK2 cells; GraphPad Prism 6) |
| --- | --- |
| B1 | 1.03 µg/mL |
| B2 | 0.292 µg/mL |
| B4 | 1.88 µg/mL |
| B3 | 1.39 µg/mL |

Biological target: T4, F protein of human metapneumovirus …
Assay: cell-based or functional assay
Remark: another data set of the same source

| Binder | IC90, neutralizing activity (hMPV infection of LLC-MK2 cells; GraphPad Prism 6) |
| --- | --- |
| B1 | 0.8 µg/mL |
| B2 | 0.101 µg/mL |
| B4 | 0.653 µg/mL |
| B3 | 1.56 µg/mL |

Biological target: T1, F protein of human metapneumovirus …
Assay: cell-based or functional assay
Remark: another data set of the same source

| Binder | IC50, cell-to-cell spread inhibitory activity (LLC-MK2 cells stably expressing TMPRSS2) | IC90, cell-to-cell spread inhibitory activity (LLC-MK2 cells stably expressing TMPRSS2) |
| --- | --- | --- |
| B1 | 0.054 µg/mL | 0.132 µg/mL |
| B2 | 0.0166 µg/mL | 0.065 µg/mL |
| B4 | 0.0132 µg/mL | 0.0669 µg/mL |
| B3 | 0.108 µg/mL | 0.707 µg/mL |

Biological target: HA-V5-Full, hMPV (JPS02-76) FP with HA-Tag downstream of the signal peptide and linker and V5-Tag do (human metapneumovirus, strain JPS02-76 …)
Assay: cell fluorescent immunostaining, fixed transfected CHO-K1 cells

| Binder | binding result |
| --- | --- |
| B3 | binds |

Biological target: FP-TM(-)-His, His-Tag-added hMPV (JPS02-76) FP lacking the transmembrane region (amino acid residues 491 to … (human metapneumovirus, strain JPS02-76 …, UniProt Q6WB98 19-490))
Assay: SPR, Biacore T-200; antibody captured by anti-human IgG, FP-TM(-)-His as analyte

| Binder | Kd | koff | kon |
| --- | --- | --- | --- |
| B1 | 1.62 nM | 0.000408 s⁻¹ | 252000 M⁻¹ s⁻¹ |
| B3 | 0.265 nM | 0.000123 s⁻¹ | 463000 M⁻¹ s⁻¹ |
